T1: recombinant human CD38 extracellular region protein (Val 43-Ile 300) with N-terminal 6×his tag (human, UniProt P28907 43-300)
T1 construct: range 43-300; Expressed in HEK293.6E cells and purified on a nickel chelate column; also called human CD38 recombinant protein; human CD38 protein
T1 sequence: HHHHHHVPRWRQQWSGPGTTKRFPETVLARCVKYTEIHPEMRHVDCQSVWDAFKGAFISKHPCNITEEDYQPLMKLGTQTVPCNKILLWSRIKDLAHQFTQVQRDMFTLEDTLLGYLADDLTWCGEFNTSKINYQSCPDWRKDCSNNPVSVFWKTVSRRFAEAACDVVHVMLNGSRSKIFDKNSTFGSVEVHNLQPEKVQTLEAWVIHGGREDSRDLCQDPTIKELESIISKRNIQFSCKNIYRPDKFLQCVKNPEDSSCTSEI

T2: human CD38 expressed on tumor cells (Daudi, NALM-6, Ramos.2G6.4C10, TALL-1) (human, UniProt P28907 1-300)
T2 construct: whole, on cells; Endogenous CD38 on human tumor cell lines; also called CD38 molecules expressed on Daudi; CD38 on Daudi cells
T2 sequence (looked up): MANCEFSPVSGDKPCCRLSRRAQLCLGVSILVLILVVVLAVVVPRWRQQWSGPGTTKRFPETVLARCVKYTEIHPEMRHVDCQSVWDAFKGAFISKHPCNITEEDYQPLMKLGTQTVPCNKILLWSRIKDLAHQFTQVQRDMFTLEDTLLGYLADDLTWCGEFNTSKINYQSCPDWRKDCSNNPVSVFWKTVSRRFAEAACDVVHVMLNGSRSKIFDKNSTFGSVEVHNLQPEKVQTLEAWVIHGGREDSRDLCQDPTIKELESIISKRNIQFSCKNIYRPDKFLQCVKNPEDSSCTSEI


Key:
[1] = target: T1, recombinant human CD38 extracellular …; experiment: ELISA, plate coated with human CD38 protein, detection with HRP goat anti-human IgG Fc, OD450
[2] = target: T2, human CD38 expressed on tumor cells …; experiment: flow cytometry (FACS) on NALM-6 cells
Experimental: (§1) Different cells in logarithmic phase were blocked with 3% BSA for 30 minutes, and then plated into a U-shaped 96-well plate at 5×10⁴ cells/100 μL; centrifugation was conducted at 1100 rpm for 3 minutes, the supernatant was discarded, the cells were patted and loosed gently, 50 μL of serially diluted antibody (diluted 3-fold in 5 series, with an initial concentration of 30 μg/mL) was added to each well, and the mixture was incubated at 4° C. for 1 hour. After the incubation, 180 μL 0.5% BSA was added to each well, wash 3 times, 30 μL/well of secondary antibody Alexa Fluro 647 anti-human IgG (Jackson ImmunoResearch, Cat: 109-606-170) was added, and the mixture was incubated at 4° C. for 45 minutes. After the incubation, each well was washed 3 times with 180 μL 0.5% BSA, and finally resuspended in 50 μL PBS each well for iQue (Intellicyt, USA) assay.

[3] = target: T2, human CD38 expressed on tumor cells …; experiment: flow cytometry (FACS) on Daudi cells
Experimental: as §1

[4] = target: T1, recombinant human CD38 extracellular …; experiment: SPR (Biacore), antibody captured on protein A chip, human CD38 recombinant protein as analyte, Langmuir 1:1 fit
[5] = target: T2, human CD38 expressed on tumor cells …; experiment: flow cytometry (FACS) on TALL-1 cells
Experimental: as §1

[6] = target: T2, human CD38 expressed on tumor cells …; experiment: flow cytometry (FACS) on Ramos.2G6.4C10 cells
Experimental: as §1

[7] = target: T1, recombinant human CD38 extracellular …; experiment: ELISA, plate coated with human CD38 protein, anti-human IgG Fc-HRP detection
Experimental: A 96-well plate was coated with human CD38 protein and incubated overnight at 4° C. The solution in wells were then discarded, washed 3 times with wash buffer, and blocked by the addition of 2% milk in PBS for 60 minutes. After washing 3 times with washing buffer, 100 μL of antibodies at different dilutions were added to each well, and the mixture was incubated at 37° C. for 1 hour; after washing 3 times with washing buffer, HPR-labeled goat anti-human IgG Fc was diluted at 1:5000 with 0.5% BSA, and the mixture was incubated at room temperature for 1 hour; after washing 3 times with washing buffer, 100 μL of TMB substrate solution was added for color development; after reaction at 37° C. for 10 minutes, the reaction was terminated with 50 μL of 2M sulfuric acid solution and the absorbance was read at 450 nm.

EC50 (read off the curve) [1] [nM]	EC50 [2] [nM]	EC50 [3] [nM]	Kd [4] [nM]	koff [4] [s⁻¹]	kon [4] [M⁻¹ s⁻¹]	EC50 [5] [nM]	EC50 [6] [nM]	EC50 [7] [nM]	Binder
~0.1	–	–	–	–	–	–	–	–	chimeric anti-human CD38 antibody 48H1-B11 (antibody, V domains shown, also called chimeric antibody 48H1-B11; mAb48H1-B11 (murine parent)) VH: EVQLKQSGPGLMQPSQSLSITCTVSGFSLTSYGIHWLRQSPGKGLEWLGVIWRGGSTDYNAAFMSRLSITKDNSKSQVFFKMNSLQGDDTAIYYCAKGKVTTGFYFDFWGQGTTLTVSS VL: DIQMTQSSSSFSVSLGDRVTITCKASEDIYNRLVWYQQKPGNAPGLLISGVTSLETGVPSRFSGSGSGKDYTLTITSLQTEDVATYYCQQYWSTPYTFGGGTKLEIK
–	0.37	0.44	0.278	0.000556	2e+06	0.41	0.42	0.51	humanized CD38 antibody Ab031 (h48H1-VHv7 / h48H1-VKv7) (antibody, V domains shown, also called CM313-1) VH: QVQLQESGPGLVKPSETLSLTCTVSGFSLTSYGIHWIRQPPGKGLEWIGVIWRGGSTDYNPSLKSRVTISKDNSKSQVSLKLSSVTAADTAVYYCAKGKVTTGFYFDFWGQGTLVTVSS VL: EIVMTQSPPTLSLSPGERVTLSCRASEDIYNRLVWYQQKPGQAPRLLISGVTSLETSIPARFSGSGSGTDYTLTISSLQPEDFAVYYCQQYWSTPYTFGQGTKVEIK
–	0.49	0.54	1.43	0.00532	3.71e+06	0.34	0.58	4.24	humanized CD38 antibody Ab033 (h48H1-VHv8 / h48H1-VKv7) (antibody, V domains shown, also called CM313-2) VH: QVQLQESGPGLVKPSETLSLTCTVSGFSLTSYGIHWLRQPPGKGLEWIGVIWRGGSTDYNPSLKSRVTISKDTSKSQVSLKLSSVTAADTAVYYCAKGKVTTGFYFDFWGQGTLVTVSS VL: EIVMTQSPPTLSLSPGERVTLSCRASEDIYNRLVWYQQKPGQAPRLLISGVTSLETSIPARFSGSGSGTDYTLTISSLQPEDFAVYYCQQYWSTPYTFGQGTKVEIK

From patent publication US20230132604A1 (KEYMED BIOSCIENCES, published 2023)
